From paper PMC9706586 come the findings set out here.

Assay [1] addresses CD20 (human) (UniProt P11836). As to the kind of experiment: SPR; Biacore T200, CM5 chip with immobilised anti-His antibody, 20 °C; His-tagged receptor or antigen captured; serial dilutions of anti-CD20 X-body, IgG or IgA injected (120 s binding, 240 s dissociation, 30 µL/min); 1:1 binding kinetic model or steady-state affinity model.
Assay [2] has as its target FcRn (UniProt P55899). The description is as above.
Assay [3] addresses FcγRIIIa^F158 (human) (UniProt P08637). The description is as above.
The target of assay [4] is FcγRIIIa^V158 (human). The description is as above.
Assay [5] deals with FcγRIIa^H131 (human) (UniProt P12318). The description is as above.
Sequence of FcγRIIa^H131 (human) (P12318 34-217): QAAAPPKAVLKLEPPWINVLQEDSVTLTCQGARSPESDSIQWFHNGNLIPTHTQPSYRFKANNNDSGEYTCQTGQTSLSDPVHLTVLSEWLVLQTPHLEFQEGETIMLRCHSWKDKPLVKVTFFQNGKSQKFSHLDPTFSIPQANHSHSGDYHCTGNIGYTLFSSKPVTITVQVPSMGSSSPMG
In assay [6] the target is FcγRIIb (human) (UniProt P31994). The description is as above.
Sequence of FcγRIIb (human) (P31994 43-217): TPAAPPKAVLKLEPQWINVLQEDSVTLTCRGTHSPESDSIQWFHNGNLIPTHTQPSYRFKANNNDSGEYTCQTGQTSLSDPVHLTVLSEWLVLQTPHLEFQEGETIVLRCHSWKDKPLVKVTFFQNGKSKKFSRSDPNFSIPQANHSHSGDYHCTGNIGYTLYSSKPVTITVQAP
Assay [7] deals with CD89 (human) (UniProt P24071). As to the kind of experiment: SPR; Biacore T200; CM5 chip with immobilised anti-His antibody captures the His-tagged receptor or antigen; serial dilutions of antibody injected (120 s binding, 240 s dissociation, 30 µL/min); 20 °C; 1:1 binding kinetic model or steady-state affinity model. Background: In SPR one partner is held on a chip, and binding of the other changes the refractive index at the surface.
Sequence of CD89 (human) (P24071 22-287): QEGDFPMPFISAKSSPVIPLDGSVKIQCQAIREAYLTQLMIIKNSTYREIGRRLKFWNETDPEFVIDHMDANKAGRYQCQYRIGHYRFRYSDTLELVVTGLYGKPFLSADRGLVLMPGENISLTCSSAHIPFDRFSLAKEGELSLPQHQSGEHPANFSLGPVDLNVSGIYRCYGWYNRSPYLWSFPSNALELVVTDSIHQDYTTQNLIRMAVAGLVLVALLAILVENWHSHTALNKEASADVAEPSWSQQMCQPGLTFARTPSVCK

Assay [8] deals with FcγRI (UniProt P12314). The description is as above.
Sequence of FcγRI (P12314 16-374): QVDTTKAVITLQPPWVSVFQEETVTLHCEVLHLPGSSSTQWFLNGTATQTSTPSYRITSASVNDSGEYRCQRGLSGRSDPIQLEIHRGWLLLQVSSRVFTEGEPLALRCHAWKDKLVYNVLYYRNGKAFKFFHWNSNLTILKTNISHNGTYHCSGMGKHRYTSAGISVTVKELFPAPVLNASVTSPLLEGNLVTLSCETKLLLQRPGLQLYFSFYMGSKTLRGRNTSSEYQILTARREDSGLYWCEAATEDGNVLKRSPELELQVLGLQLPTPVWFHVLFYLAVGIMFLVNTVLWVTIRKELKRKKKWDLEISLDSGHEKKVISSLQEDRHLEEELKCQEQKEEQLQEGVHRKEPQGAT

Sequence of CD20 (human) (P11836 whole entry): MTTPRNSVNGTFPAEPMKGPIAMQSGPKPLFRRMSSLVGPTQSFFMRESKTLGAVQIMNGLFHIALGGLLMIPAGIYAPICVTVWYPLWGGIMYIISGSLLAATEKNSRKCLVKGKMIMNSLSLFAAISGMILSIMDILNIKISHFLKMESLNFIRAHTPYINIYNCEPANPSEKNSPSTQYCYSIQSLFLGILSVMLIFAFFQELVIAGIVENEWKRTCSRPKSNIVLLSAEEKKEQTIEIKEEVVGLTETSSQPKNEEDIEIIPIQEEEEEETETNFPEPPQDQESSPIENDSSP
Sequence of FcγRIIIa^F158 (human) (P08637 17-208): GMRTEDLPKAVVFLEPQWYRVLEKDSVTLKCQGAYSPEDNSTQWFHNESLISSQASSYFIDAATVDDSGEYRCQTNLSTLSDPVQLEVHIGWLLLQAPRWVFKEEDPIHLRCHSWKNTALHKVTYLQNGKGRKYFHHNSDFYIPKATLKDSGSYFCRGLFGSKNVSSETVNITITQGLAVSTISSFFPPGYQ

On to Rituximab IgA (antibody), for which the Kd (in general, the constant that tells how readily two partners part at equilibrium) in assay [1] amounted to 6.71 nM.
For the substance Rituximab IgG (antibody), the Kd in assay [1] was determined as 3.74 nM; in assay [2] it was 0.0391 nM; in assay [3], 0.0663 nM; in assay [4] it was 0.0603 nM; in assay [5], 0.0548 nM; in assay [6], 0.00277 nM.
Regarding trastuzumab IgA (antibody), the figures for the Kd in assay [7] and in assay [8] were 58.8 nM and 272 nM, respectively.
For trastuzumab IgG (antibody), the dissociation constant (Kd) in assay [8] worked out at 113 nM.
